This is an account of results in patent US20260146103A1 (J DAVID GLADSTONE INSTITUTES A TESTAMENTARY TRUST …, published 2026).

Assay [1] has as its target T1, fibrin (UniProt P02671 36-629; P02675 45-491; P02679 27-437).
T1 construct: also called IgG-depleted fibrin; fibrin networks
T1 sequence (looked up) 1: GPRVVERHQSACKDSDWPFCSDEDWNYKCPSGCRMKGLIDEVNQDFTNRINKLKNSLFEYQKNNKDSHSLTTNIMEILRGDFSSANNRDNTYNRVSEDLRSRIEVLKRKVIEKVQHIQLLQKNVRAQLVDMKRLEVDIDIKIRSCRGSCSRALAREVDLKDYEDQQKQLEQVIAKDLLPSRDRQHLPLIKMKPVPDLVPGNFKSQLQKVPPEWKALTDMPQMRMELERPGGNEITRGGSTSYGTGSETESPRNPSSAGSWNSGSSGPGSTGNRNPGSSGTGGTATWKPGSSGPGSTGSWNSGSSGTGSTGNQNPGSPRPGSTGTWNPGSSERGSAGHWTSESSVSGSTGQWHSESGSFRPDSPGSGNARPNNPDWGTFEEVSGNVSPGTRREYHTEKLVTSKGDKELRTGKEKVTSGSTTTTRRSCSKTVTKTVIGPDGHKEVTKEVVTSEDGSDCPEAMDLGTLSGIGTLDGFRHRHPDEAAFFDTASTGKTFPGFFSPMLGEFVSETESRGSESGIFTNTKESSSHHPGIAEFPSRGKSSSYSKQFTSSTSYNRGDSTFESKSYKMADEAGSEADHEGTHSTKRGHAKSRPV
T1 sequence (looked up) 2: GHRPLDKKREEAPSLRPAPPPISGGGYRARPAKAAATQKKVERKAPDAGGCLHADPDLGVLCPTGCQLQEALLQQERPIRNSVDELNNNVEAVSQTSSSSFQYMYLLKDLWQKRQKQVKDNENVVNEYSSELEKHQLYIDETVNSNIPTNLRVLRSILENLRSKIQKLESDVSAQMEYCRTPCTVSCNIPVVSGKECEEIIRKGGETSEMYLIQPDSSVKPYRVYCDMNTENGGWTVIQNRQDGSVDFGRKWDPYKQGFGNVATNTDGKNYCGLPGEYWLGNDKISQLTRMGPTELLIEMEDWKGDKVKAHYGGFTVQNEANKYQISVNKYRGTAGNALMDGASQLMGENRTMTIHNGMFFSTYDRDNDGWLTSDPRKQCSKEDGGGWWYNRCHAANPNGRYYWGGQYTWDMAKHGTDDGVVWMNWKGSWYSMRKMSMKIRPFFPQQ
T1 sequence (looked up) 3: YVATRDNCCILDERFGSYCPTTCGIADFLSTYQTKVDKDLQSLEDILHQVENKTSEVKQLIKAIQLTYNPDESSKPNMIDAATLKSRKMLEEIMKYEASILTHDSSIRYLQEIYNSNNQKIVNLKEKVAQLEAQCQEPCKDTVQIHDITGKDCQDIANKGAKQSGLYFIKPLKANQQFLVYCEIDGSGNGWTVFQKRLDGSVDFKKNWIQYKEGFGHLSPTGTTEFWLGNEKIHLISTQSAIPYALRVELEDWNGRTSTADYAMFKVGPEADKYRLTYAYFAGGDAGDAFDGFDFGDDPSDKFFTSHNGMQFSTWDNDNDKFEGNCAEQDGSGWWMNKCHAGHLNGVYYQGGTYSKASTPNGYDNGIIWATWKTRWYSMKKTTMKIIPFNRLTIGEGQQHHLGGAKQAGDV
Description: solid phase ELISA, 25 µg/mL IgG-depleted fibrin coated, 12-point 3-fold dilution. On the procedure: (§1) Solid phase ELISA was used to assess whether Antibody G binds to fibrinogen and fibrin separately. Antibody G was incubated for 2 hours at 37° C. on 25 μg/mL IgG-depleted fibrinogen or fibrin in 20 mM HEPES buffer, pH7.2, coated and dried overnight in high protein-binding ELISA plates.
Solid phase ELISA was used to assess murine Antibody G binding to fibrin. Antibody G was incubated for 2 hours at 37° C. on 25 μg/mL IgG-depleted fibrin in 20 mM HEPES buffer, pH7.2, coated and dried overnight in high protein-binding ELISA plates.
(In general: An ELISA detects its analyte on a solid surface through an enzyme-linked reagent.)

In assay [2] the target is FIBG 331-345 peptide (human) (UniProt P02679). Put plainly: solid phase ELISA, 30 µM FIBG331-345 peptide coated.
Assay [3] addresses T2, P2 peptide (YSMKETTMKIIPFNRLTIG).
T2 peptide: YSMKETTMKIIPFNRLTIG
Put plainly: solid phase ELISA, 30 µM P2 peptide coated. On the procedure:
Based on the fibrinogen peptide profiling (FIG. 8), 15mers were selected to carry out individual peptide binding validation using solid phase ELISA. High purity 15mers were synthesized (Genemed) and then each were diluted at 30 μM in 20 mM HEPES buffer, coated in separate wells and dried overnight. Antibody G was incubated on peptide coated wells for 2 hours at 37° C., at a concentration of 25 or 50 μg/mL.

The target in assay [4] is T3, fibrinogen (UniProt P02671 20-629; P02675 31-491; P02679 27-437, limits assumed).
T3 construct: also called IgG-depleted fibrinogen
T3 sequence (looked up) 1: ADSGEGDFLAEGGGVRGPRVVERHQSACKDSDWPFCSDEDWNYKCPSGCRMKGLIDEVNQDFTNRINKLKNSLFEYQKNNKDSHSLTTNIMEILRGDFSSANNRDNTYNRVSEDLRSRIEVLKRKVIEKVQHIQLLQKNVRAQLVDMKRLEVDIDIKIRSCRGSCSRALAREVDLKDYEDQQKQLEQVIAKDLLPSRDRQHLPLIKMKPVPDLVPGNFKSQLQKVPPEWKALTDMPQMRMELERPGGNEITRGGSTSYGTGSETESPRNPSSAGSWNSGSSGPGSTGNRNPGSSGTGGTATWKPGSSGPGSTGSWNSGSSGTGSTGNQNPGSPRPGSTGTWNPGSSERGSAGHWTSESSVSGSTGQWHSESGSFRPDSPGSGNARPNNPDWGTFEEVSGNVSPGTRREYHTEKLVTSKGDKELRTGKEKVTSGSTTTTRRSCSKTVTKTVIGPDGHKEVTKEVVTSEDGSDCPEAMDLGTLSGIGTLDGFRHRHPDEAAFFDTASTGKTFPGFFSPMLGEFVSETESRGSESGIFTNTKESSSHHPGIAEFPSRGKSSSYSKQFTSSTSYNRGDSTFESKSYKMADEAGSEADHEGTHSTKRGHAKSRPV
T3 sequence (looked up) 2: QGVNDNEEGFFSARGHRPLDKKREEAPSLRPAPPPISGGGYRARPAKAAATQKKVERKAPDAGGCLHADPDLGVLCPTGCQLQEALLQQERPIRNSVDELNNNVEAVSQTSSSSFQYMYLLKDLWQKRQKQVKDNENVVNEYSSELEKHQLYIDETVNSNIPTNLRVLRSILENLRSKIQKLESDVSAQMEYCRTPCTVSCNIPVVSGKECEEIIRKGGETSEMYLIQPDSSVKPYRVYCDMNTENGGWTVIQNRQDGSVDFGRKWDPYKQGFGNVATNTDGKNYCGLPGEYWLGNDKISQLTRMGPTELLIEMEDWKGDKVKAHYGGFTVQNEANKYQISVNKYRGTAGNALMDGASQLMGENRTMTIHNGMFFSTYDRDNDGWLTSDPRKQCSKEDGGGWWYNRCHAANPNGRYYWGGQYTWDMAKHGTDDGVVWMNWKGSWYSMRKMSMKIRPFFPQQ
T3 sequence (looked up) 3: T1 sequence (looked up) 3
Put plainly: solid phase ELISA, 25 µg/mL IgG-depleted fibrinogen coated, 12-point 3-fold dilution. On the procedure: as §1

In general, Kd refers to the equilibrium constant for the complex coming apart.

B1: Antibody G (45-C1C3) (antibody, V domains shown)
VH: EVQLVESGGGAVQPGRSLRLSCAASGVSFSNIGMHWVRQAPGKGLEWVALISSDGRHTHYADSVKGRFTISRDNSENTLYLQINGLRADDTAVYYCAKGLDTRARYMGKFYTFDYWGQGTLVTVSS
VL: DIQLTQSPSSLSASVGDRVTITCRASQNIGVNLNWYQQRPGKGPKLLVSSTFSLQSGVPSRFSASGAGTNFTLTISSLQPEDYVTYYCQQSYSSPFTFGPGTKVDIK
notes: also called mAb G; Ab G
As to B1, the Kd in assay [1] was 160 nM; in assay [2], 360 nM; in assay [3], 11800 nM; in assay [4] it was 660 nM.

B2: murine Antibody G (mu-AbG) (antibody, mouse IgG2a, kappa, V domains shown)
VH: B1 VH
VL: DIQLTQSPSSLSASVGDRVTITCRASQNIGVNLNWYQQRPGKGPKLLVSSTFSLQSGVPSRFSASGAGTNFTLTISSLQPEDYVTYYCQQSYSSPFTFGPGTKVDIKR
notes: Variable domains of Antibody G with mouse IgG2a heavy and mouse kappa light constant regions; also called murine mAb G
B2 displayed a Kd in assay [1] of 40 nM.
